# Experimental data reported in US20170247475A1 (Boehringer Ingelheim, published 2017).
# Residue numbers refer to the chain shown, from its start. In names and notes the source's numbering stands.
# T1: human VEGF-C (human, UniProt P49767 103-227)
# T1 construct: also called hVEGF-C
# T1 sequence (looked up): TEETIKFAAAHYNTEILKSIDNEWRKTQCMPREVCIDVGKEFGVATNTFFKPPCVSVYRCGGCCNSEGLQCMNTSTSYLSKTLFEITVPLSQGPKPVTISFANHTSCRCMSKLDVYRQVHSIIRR
# B1: VEGFBII05B03 (VHH)
# VHH: EVQLVESGGGLAQAGDSLRLSCAASGRSFSHYNMGWFRQAPGKEREFVASIRGGGGSTTYANSVKDRFTISRENAKNTVYLQMNSLKPEDTAVYYCAATAFYRGPYDYDYWGQGTQVTVSS
# B2: VEGFBII10G05 (VHH)
# VHH: EVQLVESGGGLVQAGESLRLSCVASGITFSNYNMGWFRQAPGKEREFVATIRHHGYDTYYAESVKGRFTISRDNAKNTVYLQMNSLKPEDTALYSCAKKLFWDMDPKTGFSSWGQGTQVTVSS
# B3: VEGFBII86H09 (VHH)
# VHH: EVQLVESGGGLVQAGGSLRLSCTASGSAFKSYRMGWFRRTPGKEDEFVASISWTYGSTFYADSVKGRFTMSRDKAKNAGYLQMNSLKPEDTALYYCAAGAQSDRYNIRSYDYWGQGTQVTVSS
# B4: VEGFBII05B02 (VHH)
# VHH: EVQLVESGGGLVQAGGSLRLSCAASGRTFSTDDVGWFRQAPGKEREFVAVIRWSTGGTYTSDSVKGRFTLSRDNAKNTMYLQMNSLKPEDTAVYYCAARSRPLGAGAWYSGEKHYNYWGQGTQVTVSS
# B5: VEGFBII11E04 (VHH)
# VHH: EVQLVESGGGLVQAGGSLRLSCAASGRTFSSYAMGWFRQAPGKEREFVATISQSGYSTYYADSVKGRFTISRDNAKNTVNLQMNSLKPEDTAVYYCAADPFYSYGSPSPYRYWGQGTQVTVSS
# B6: VEGFBII10G04 (VHH)
# VHH: EVQLVESGGGLVQAGGSLRLSCAASGDTLSRYAMGWFRQAPGKEREFVASINTSGKRTSYADSMKGRFAVSRDNAKNTGYLQMNSLKLEDTATYYCAADRFFGSDSNEPRAYRYWGQGTQVTVSS
# B7: VEGFBII11C08 (VHH)
# VHH: EVQLVESGGGLVQAGGSLRLSCAASGRTLSSYGLGWFRQAPGKEREFVAAIGWSGSSTYYADSVKGRFTVSVDNAKNTVYLKMNSLEPEDTAVYYCAAKVRNFNSDWDLLTSYNYWGQGTQVTVSS
# B8: VEGFBII41C05 (VHH)
# VHH: EVQLVESGGGLVQAGGSLRLSCAASGRTFSVYTMGWFRQAPGKEREFVATISRTGDRTSYANSVKGRFTISRENAKNTVYLQMNSLKPEDTAVYSCAAGPIAPSPRPREYYYWGQGTQVTVSS
# B9: VEGFBII03D12 (VHH)
# VHH: EVQLVESGGGLVQAGGSLRLSCTASTSIYTITVMAWFRQAPGKEREFVAAITWSAPTTYYADSVKGRFTISRDNAKNTVYLRMNSLKPEDSAIYYCAADRFKGRSIVTPSDYRYWGQGTQVTVSS
# B10: VEGFBII11F12 (VHH)
# VHH: EVQLVESGGGLVQSGGSLRLSCAASGRSFSSLAMGWFRQVPGKDREFVASISQSGITTSYADSVKSRFTISRDSAKNTVYLQMNLLKPEDTAVYYCATSVFYSTALTRPVDYRYWGQGTQVTVSS
# B11: VEGFBII06G02 (VHH)
# VHH: EVQLVESGGGLVQPGGSLRLSCAASGNIFSNNAMAWYRQAPGKQRELVARISSGGGFTYYLDSVKGRFTVSRDNAKNTVYLQMNSLKPEDTAVYYCNAAYRTYNYWGQGTQVTVSS
# B12: VEGFBII10E07 (VHH)
# VHH: EVQLVESGGGLVQAGGSLRLSCAASGRTFSNYAMGWFRQAPGKERVLVADISSSGINTYVADAVKGRFTISRDNAKNTVYLQMNSLKPEDTAVYYCAASAWWYSQMARDNYRYWGQGTQVTVSS
# B13: VEGFBII11E05 (VHH)
# VHH: EVQLVESGGGLVQPGGSLRLSCASSGRLFSFSAMGWFRQAPGKEREFVAAFKWSGSTTYYADYVKGRFTISTDNAKNILFLQMNSLKPEDTAIYYCAVDRFYTGRYYSSDEYDYWGQGTQVTVSS
# B14: VEGFBII11D09 (VHH)
# VHH: EEQLVESGGGLVQAGGSLMLSCAASGRALSSYAIGWFRQAPGREREFVARISWSGANTYYADSVKGRFTISRGNAKNTVYLQMNSLKPEDTAAYYCAAQTTSKYDNYDARAYGYWGQGTQVTVSS
# B15: VEGFBII10C07 (VHH)
# VHH: EVQLVESGGGLVQAGGSLSLSCAASARAFSNYAMGWFRQVPGREREFVAVITRSPSNTYYTDSVKGRFTISRDNAKNIVYLQMNSLKPEDTAVYYCAAHYWNSDSYTYTDSRWYNYWGQGTQVTVSS
# B16: VEGFBII08D09 (VHH)
# VHH: EVQLVESGGGLVQAGGSLRLSCAASGRSFSDNVMGWFRQAAGKEREFVAHISRGGSRTEYAESVKGRFTISRDNTKKTMYLQMNSLKPEDTAVYYCAASRSVALATARPYDYWGQGTQVTVSS
# B17: VEGFBII07D08 (VHH)
# VHH: EVQLVESGGGLVQTGGSLRLSCAASGRTFSNYAMAWFRQAPGKEREFVSAINQRGSNTNYADSVKGRFTISRDSAKNSVFLQMNSLKPEDTAVYYCAASTWYGYSTYARREEYRYWGQGTQVTVSS
# B18: VEGFBII119G11 (VHH)
# VHH: EVQLVESGGGLVQPGGSLRLSCAASGIRFMSMAWYRQAPGKQRELVARISSGGTTAYADSVKGRFTISRDNSKNTVYLQMNSLRAEDTAVYYCNTFSSRPNPWGQGTLVTVSS
# notes: humanization variant of VEGFBII5B05; tested as periplasmic extract
# B19: VEGFBII120E10 (VHH)
# VHH: B18 VHH with A23V, M30I, Q42H, A58V, R84K, Q105A, L108Q
# notes: VEGFBII5B05 with the M30I mutation; tested as periplasmic extract
# B20: human VEGFR2-Fc chimera (Fc fusion, UniProt P35968 20-764, looked up, not shown: a dimerising Fc or GST)
# chain: ASVGLPSVSLDLPRLSIQKDILTIKANTTLQITCRGQRDLDWLWPNNQSGSEQRVEVTECSDGLFCKTLTIPKVIGNDTGAYKCFYRETDLASVIYVYVQDYRSPFIASVSDQHGVVYITENKNKTVVIPCLGSISNLNVSLCARYPEKRFVPDGNRISWDSKKGFTIPSYMISYAGMVFCEAKINDESYQSIMYIVVVVGYRIYDVVLSPSHGIELSVGEKLVLNCTARTELNVGIDFNWEYPSSKHQHKKLVNRDLKTQSGSEMKKFLSTLTIDGVTRSDQGLYTCAASSGLMTKKNSTFVRVHEKPFVAFGSGMESLVEATVGERVRIPAKYLGYPPPEIKWYKNGIPLESNHTIKAGHVLTIMEVSERDTGNYTVILTNPISKEKQSHVVSLVVYVPPQIGEKSLISPVDSYQYGTTQTLTCTVYAIPPPHHIHWYWQLEEECANEPSQAVSVTNPYPCEEWRSVEDFQGGNKIEVNKNQFALIEGKNKTVSTLVIQAANVSALYKCEAVNKVGRGERVISFHVTRGPEITLQPDMQPTEQESVSLWCTADRSTFENLTWYKLGPQPLPIHVGELPTPVCKNLDTLWKLNATMFSNSTNDILIMELKNASLQDQGDYVCLAQDRKTKKRHCVVRQLTVLERVAPTITGNLENQTTSIGESIEVSCTASGNPPPQIMWFKDNETLVEDSGIVLKDGNRNLTIRRVRKEDEGLYTCQACSVLGCAKVEAFFIIEGAQEKTNLE
# notes: bought (R&D Systems); also called hVEGFR2-Fc; VEGFR2-huFc
# Target: T2, recombinant human VEGF165 (human, UniProt P15692-4 27-191)
# T2 construct: also called hVEGF165; rhVEGF165
# Assay: Biacore epitope binning, VEGF165 captured on immobilised VEGFBII23B04
# Method: Biacore-based epitope binning experiments are performed to investigate which VEGF binders bind to a similar or overlapping epitope as VEGFBII23B04. To this end, VEGFBII23B04 is immobilized on a CM5 sensor chip. […] Purified VHHs (100 nM) or periplasmic extracts (1/10 diluted) are then injected with a surface contact time of 240 seconds and a flow rate of 10 uL/minute. Between different samples, the surface is regenerated with regeneration buffer (100 mM HCl). Processed curves are evaluated with Biacore T100 Evaluation software.
# T2 sequence (P15692 other isoform, or with tags, fused parts or gaps limits assumed): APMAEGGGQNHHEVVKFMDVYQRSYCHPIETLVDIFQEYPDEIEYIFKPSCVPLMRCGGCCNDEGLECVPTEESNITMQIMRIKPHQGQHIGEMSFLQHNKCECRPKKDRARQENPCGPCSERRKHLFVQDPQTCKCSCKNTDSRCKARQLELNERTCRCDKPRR
row,binding result,Binder
1,binds,B1
2,binds,B2
3,binds,B3
4,binds,B4
5,binds,B5
6,binds,B6
7,binds,B7
8,binds,B8
9,binds,B9
10,binds,B10
11,binds,B11
12,binds,B12
13,binds,B13
14,binds,B14
15,binds,B15
16,binds,B16
17,binds,B17

# Target: T2, recombinant human VEGF165
# Assay: ProteOn, periplasmic extract 1/10 on hVEGF165 chip
# Excerpt: One additional variant is constructed in which the potential oxidation site at position M30 (CDR1 region, see FIG. 19 indicated as bold italic residue) is removed by introduction of a M30I mutation.
Binding level (RU),koff,Binder
234 RU,0.0775 s⁻¹,B18
257 RU,0.0468 s⁻¹,B19

# Target: T1, human VEGF-C
# Assay: binding ELISA on coated VEGFC
# Method: Binding to VEGFB, VEGFC, VEGFD and PIGF is assessed via a solid phase binding ELISA. In brief, VEGFB, VEGFC, VEGFD and PIGF (R&D Systems, Minneapolis, Minn., USA) are coated overnight at 4° C. at 1 μg/mL in a 96-well MaxiSorp plate (Nunc, Wiesbaden, Germany). Wells are blocked with a casein solution (1% in PBS). […] As positive controls serial dilutions of the appropriate receptors are taken along and detected with horseradish peroxidase (HRP)-conjugated goat anti-human IgG, Fc specific antibody (Jackson Immuno Research Laboratories Inc., West Grove, Pa., USA) and a subsequent enzymatic reaction in the presence of the substrate TMB (3,3′,5,5′-tetramentylbenzidine) (Pierce, Rockford, Ill., USA).
row,EC50 (read off the curve),Binder
1,~4 nM,B20
